Assay results from PMC11024197.
Values joined by “and” are separate entries in the source; they are usually repeats but may differ in a detail not shown here. Identical values can stand only once.

How the values were obtained:
[1] = molecular target: PEX13 SH3 domain (human) (UniProt Q92968); experiment: ITC; PEX13 SH3 at 35-48 µM titrated with PEX5 15-mer peptides or PEX5 1-76 (0.6-0.7 mM) or PEX13 350-403 (0.9-1 mM); 25 °C; 20 mM Tris pH 7.5, 50 mM NaCl; one-site model; triplicates
[2] = molecular target: PEX14 NTD (1-104) (human) (UniProt O75381); experiment: ITC; PEX14 (1-104) at 20-60 µM titrated with PEX5 W peptides or W0 (0.4-0.6 mM), PEX13 FxxxF (0.46 mM) or PEX13 SH3-CTR (1 mM); 25 °C; 20 mM Tris pH 7.5, 50 mM NaCl; one-site model; PEX14 concentration corrected with the fit; triplicates
PEX14 NTD (1-104) (human), sequence (O75381 1-104): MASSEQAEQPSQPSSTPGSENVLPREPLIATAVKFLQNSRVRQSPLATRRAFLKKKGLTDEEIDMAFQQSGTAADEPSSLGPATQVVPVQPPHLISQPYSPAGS

[3] = molecular target: PEX14 NTD (1-104) (human) (UniProt O75381); experiment: ITC; PEX14 NTD (1-104) (20-60 µM) in the cell, titrated with PEX5 W peptides or W0 (0.4-0.6 mM), PEX13 FxxxF (0.46 mM) or PEX13 SH3-CTR (1 mM); 25 °C; 20 mM Tris pH 7.5, 50 mM NaCl; one-site binding model; PEX14 concentration corrected with the fit; triplicates
[4] = molecular target: PEX14 NTD (1-104) (human) (UniProt O75381); experiment: ITC; PEX14 (1-104) (20-60 uM, concentration corrected with the fit) in the cell, peptide or fragment in the syringe; 25 °C, 20 mM Tris pH 7.5, 50 mM NaCl; one-site binding model; single runs of triplicates and their averages
[5] = molecular target: PEX13 SH3 domain (human) (UniProt Q92968); experiment: ITC; PEX13 SH3 (35-48 uM) in the cell, peptide or fragment in the syringe; 25 °C, 20 mM Tris pH 7.5, 50 mM NaCl; one-site binding model; single runs of triplicates and their averages

For “PEX13 FxxxF peptide (residues 350-403) (from UniProt Q92968 350-403) (domain or fragment)”, the Kd [1] was 27 µM, the Kd [2] was 2.8 µM and the stoichiometry N [2] was 1.

With PEX5 W2 peptide the stoichiometry N [3] was 1 and the stoichiometry N [4] was 1 sites.

For “PEX13 SH3-CTR (residues 261-403) (from UniProt Q92968 261-403) (domain or fragment)”, the Kd [2] was 5.4 µM and the stoichiometry N [2] was 1.

With PEX5 W3 peptide the stoichiometry N [3] was 1 and the stoichiometry N [4] was 1 sites.

In the case of “PEX13 FF/W4 (FxxxF fragment with the core motif FESVF replaced by WYDEY) (domain or fragment)”, the Kd [5] is reported as 6.48 µM and 6.11 µM and 6.59 µM and the stoichiometry N [5] is reported as 1 sites.

With “PEX13 FF/W4 (FxxxF core motif FESVF replaced with WYDEY), as titrated onto the SH3 domain (domain or fragment)” the Kd [1] was 6 µM.

With PEX5 W4 peptide the stoichiometry N [3] was 1 and the stoichiometry N [4] was 1 sites.
